Patent US5556780A, “CDNAS encoding mouse and rat type-2 angiotensin II receptors and their expression in host cells” (The Board of Trustees for the Leland Stanford Junior …, priority 1993, dated 1996)

What was measured:
rat AT2 receptor = biological target: T1, rat AT2 receptor (Rattus norvegicus, UniProt P35351); assay: Radioligand binding / displacement of 125I-CGP42112A on membranes of pMRAT2-transfected COS-7 cells; details: for order of inhibition potency (competition profiles): displacement of 125I-CGP42112A
T1 construct: pMRAT2, a rat AT2 receptor full-length cDNA cloned into the expression vector pcDNA I; expressed in transfected cells; host or cells: COS-7 (transient)
T1 sequence (P35351 1-363): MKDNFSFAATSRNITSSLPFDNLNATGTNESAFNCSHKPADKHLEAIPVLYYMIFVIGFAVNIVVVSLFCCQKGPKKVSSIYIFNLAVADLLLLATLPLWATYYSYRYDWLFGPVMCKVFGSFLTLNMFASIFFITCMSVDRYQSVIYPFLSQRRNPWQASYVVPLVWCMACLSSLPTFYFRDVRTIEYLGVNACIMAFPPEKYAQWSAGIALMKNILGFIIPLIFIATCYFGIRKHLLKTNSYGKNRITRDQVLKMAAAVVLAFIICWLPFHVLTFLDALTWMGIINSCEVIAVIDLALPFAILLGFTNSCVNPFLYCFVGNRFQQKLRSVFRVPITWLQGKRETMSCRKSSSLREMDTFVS
Protocol: cDNA prepared from size-fractionated (>1 kb) poly(A)^+ RNA (Sprague-Dawley whole rat fetus, 18 days postcoitum) was ligated into an expression vector pcDNAI (Invitrogen), and amplified in 900 pools of 1,000 clones. […] Sequencing of both strands of clone pMRAT2 was done by the dideoxy chain termination method with Sequenase (USB).
2 h after incubation at room temperature, bound and free ligands were separated with GF/C filters (Whatman). […] Each experiment was carried out at least twice in duplicate, and the results shown here represent one experiment.

mouse AT1b receptor [1] = assay: Emulsion autoradiography of 125I-[Sar1,Ile8]-Ang II binding to transfected COS-7 cells (positive control); details: 1 uM DuP753; 200 pM radioligand, 2 h, room temperature
Protocol: cDNA prepared from size-fractionated (>1 kb) poly(A)^+ RNA (Sprague-Dawley whole rat fetus, 18 days postcoitum) was ligated into an expression vector pcDNAI (Invitrogen), and amplified in 900 pools of 1,000 clones. Plasmid DNA prepared from every 8 pools by the alkali lysis method was transfected over 2-3 h using DEAE-dextran/chloroquine into COS-7 cells grown on glass chamber slides (Nunc) (Mathews, L. S. & Vale, W. W. Cell 65, 973-982 (1991)). […] Cells were then washed four times with cold 50 mM Tris-HCl, pH 7.4, fixed with 0.1% glutaraldehyde at 4 C and subjected to emulsion autoradiography (Mathews, L. S. & Vale, W. W. Cell 65, 973-982 (1991)). […] Positive pool (RF904) which gave 20 DuP753-resistant positive cells was divided into subpools and rescreened, and after three rounds of screening a single clone pMRAT2 was isolated. Sequencing of both strands of clone pMRAT2 was done by the dideoxy chain termination method with Sequenase (USB).

mouse AT2 receptor = biological target: T2, mouse AT2 receptor (Mus musculus, UniProt P35374); assay: [125I]CGP42112A binding / displacement on membranes of COS-7 cells transfected with mouse AT2 receptor cDNA (MC5); details: 0.2 nM [125I]CGP42112A
T2 construct: expressed in transfected cells; host or cells: COS-7
T2 sequence (P35374 1-363): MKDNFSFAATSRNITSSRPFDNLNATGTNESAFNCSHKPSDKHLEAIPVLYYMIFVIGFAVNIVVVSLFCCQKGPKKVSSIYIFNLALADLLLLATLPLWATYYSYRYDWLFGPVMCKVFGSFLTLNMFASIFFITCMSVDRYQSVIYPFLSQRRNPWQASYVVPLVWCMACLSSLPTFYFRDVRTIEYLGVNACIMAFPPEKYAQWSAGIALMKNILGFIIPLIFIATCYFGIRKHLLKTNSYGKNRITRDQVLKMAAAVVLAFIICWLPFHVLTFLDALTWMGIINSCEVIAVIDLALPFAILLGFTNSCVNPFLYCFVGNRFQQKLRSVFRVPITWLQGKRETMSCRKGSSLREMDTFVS
Text: Materials. […] Louis, Mo.). […] Expression in COS-7 Cells and Ligand Binding Assay. […] The transfected cells were harvested and homogenized. The 100,000×g pellet of this homogenate was suspended and used as a membrane fraction.

cloned AT2 receptor [2] = assay: Intracellular calcium (fura-2) in AT2-transfected COS-7 cells; type: cell-based, rat; details: 1 uM Ang II
Protocol: (§1) Intracellular IP3 levels were measured using radioreceptor assay (NEN). […] Cell fluorescence was measured with excitation at 340 nm and 380 nm. Ionomycin (10 uM) and EGTA (10 mM) were used for calibration.

cloned AT2 receptor [3] = assay: Intracellular IP3 levels in AT2-transfected COS-7 cells (radioreceptor assay); type: cell-based, rat; details: 1 uM Ang II, 15 sec, 37 C
Protocol: as §1

[4] = biological target: rat AT2 receptor (angiotensin II type 2 receptor), clone pMRAT2 (rat); assay: radioligand binding with DTT, membranes of COS-7 cells transfected with pMRAT2
[5] = biological target: rat AT2 receptor (angiotensin II type 2 receptor), clone pMRAT2 (rat); assay: radioligand saturation binding, crude membranes of S293RAT2 cells (293 cells stably transfected with pMRAT2)
[6] = biological target: rat AT2 receptor (angiotensin II type 2 receptor), clone pMRAT2 (rat); assay: radioligand saturation binding, crude membranes of COS-7 cells transiently transfected with pMRAT2
[7] = biological target: mouse AT2 receptor (angiotensin II type 2 receptor), clone MC5 (mouse); assay: radioligand saturation binding with Scatchard plot, membrane fraction of COS-7 cells transfected with mouse AT2 receptor cDNA
mouse AT1b receptor [8] = biological target: mouse AT1b receptor (mouse, UniProt P29755); assay: emulsion autoradiography of COS-7 cells transfected with the mouse AT1b receptor clone, 200 pM radioligand
[9] = biological target: T3, rat AT2 receptor (angiotensin II type 2 receptor), clone pMRAT2 (rat); assay: expression cloning: emulsion autoradiography of transfected COS-7 cells, 200 pM radioligand with or without DuP753
T3 chain: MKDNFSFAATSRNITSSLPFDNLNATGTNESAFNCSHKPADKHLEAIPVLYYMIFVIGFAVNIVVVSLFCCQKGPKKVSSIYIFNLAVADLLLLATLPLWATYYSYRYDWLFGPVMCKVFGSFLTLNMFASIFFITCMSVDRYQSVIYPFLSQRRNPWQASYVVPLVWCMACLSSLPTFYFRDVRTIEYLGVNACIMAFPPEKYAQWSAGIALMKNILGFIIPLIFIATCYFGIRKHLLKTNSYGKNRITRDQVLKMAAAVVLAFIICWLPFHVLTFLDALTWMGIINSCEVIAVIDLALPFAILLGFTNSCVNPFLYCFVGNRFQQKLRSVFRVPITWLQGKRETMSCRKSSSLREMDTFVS
Protocol: cDNA prepared from size-fractionated (>1 kb) poly(A)^+ RNA (Sprague-Dawley whole rat fetus, 18 days postcoitum) was ligated into an expression vector pcDNAI (Invitrogen), and amplified in 900 pools of 1,000 clones. Plasmid DNA prepared from every 8 pools by the alkali lysis method was transfected over 2–3 h using DEAE-dextran/chloroquine into COS-7 cells grown on glass chamber slides (Nunc) (Mathews, L. S. & Vale, W. W. Cell 65, 973–982 (1991)). […] Cells were then washed four times with cold 50 mM Tris-HCl, pH 7.4, fixed with 0.1% glutaraldehyde at 4 C and subjected to emulsion autoradiography (Mathews, L. S. & Vale, W. W. Cell 65, 973–982 (1991)). […] Sequencing of both strands of clone pMRAT2 was done by the dideoxy chain termination method with Sequenase (USB).

CCCCc1nc(Cl)c(CO)n1Cc1ccc(-c2ccccc2-c2nn[nH]n2)cc1 [DuP753]
effect in competition (displacement of 125I-CGP42112A) (rat AT2 receptor; 150 pM radioligand): no effect | effect on positive staining (125I-[Sar1,Ile8]-Ang II binding) (mouse AT1b receptor [1]): completely abolished | competition of [125I]CGP42112A binding (mouse AT2 receptor; at a concentration up to 10^-5 M): virtually inactive

Cc1cc(Cn2cnc3c2C[C@@H](C(=O)O)N(C(=O)C(c2ccccc2)c2ccccc2)C3)ccc1N(C)C [PD123319]
order of inhibition potency (competition profiles) (rat AT2 receptor; 150 pM radioligand): [Sar^1,Ile^8 ]-Ang II=CGP42112A≥Ang II>PD123319^10,15 >Ang I | rank order of competition of [125I]CGP42112A binding (mouse AT2 receptor): [Sar^1,Ile^8 ]-Ang II=CGP42112A≥Ang II>PD123319>Ang I

Ang I: Ang I, purchased from Sigma (DRVYIHPFHL)
order of inhibition potency (competition profiles) (rat AT2 receptor; 150 pM radioligand): [Sar^1,Ile^8 ]-Ang II=CGP42112A≥Ang II>PD123319^10,15 >Ang I | rank order of competition of [125I]CGP42112A binding (mouse AT2 receptor): [Sar^1,Ile^8 ]-Ang II=CGP42112A≥Ang II>PD123319>Ang I

Ang II: Angiotensin II is an octapeptide hormone
increase of intracellular calcium (cloned AT2 receptor [2]): failed to increase | increase of IP3 (cloned AT2 receptor [3]): failed to increase

Ang II: Angiotensin II is an octapeptide hormone (DRVYIHPF)
rank order of competition of [125I]CGP42112A binding (mouse AT2 receptor): [Sar^1,Ile^8 ]-Ang II=CGP42112A≥Ang II>PD123319>Ang I

CGP42112A
order of inhibition potency (competition profiles) (rat AT2 receptor; 150 pM radioligand): [Sar^1,Ile^8 ]-Ang II=CGP42112A≥Ang II>PD123319^10,15 >Ang I | increase of binding affinity by DTT (rat AT2 receptor; with DTT): 50-100% | rank order of competition of [125I]CGP42112A binding (mouse AT2 receptor): [Sar^1,Ile^8 ]-Ang II=CGP42112A≥Ang II>PD123319>Ang I

CGP42112A (unlabelled) (ligand)
increase of binding affinity by DTT [4]: 50 to 100%

[Sar^1,Ile^8 ]-Ang II: a non-selective Ang II receptor antagonist
order of inhibition potency (competition profiles) (rat AT2 receptor; 150 pM radioligand): [Sar^1,Ile^8 ]-Ang II=CGP42112A≥Ang II>PD123319^10,15 >Ang I | rank order of competition of [125I]CGP42112A binding (mouse AT2 receptor): [Sar^1,Ile^8 ]-Ang II=CGP42112A≥Ang II>PD123319>Ang I

[^125 I]CGP42112A (ligand)
Kd [5]: 0.18 nM | Kd [6]: 0.17 nM | Kd [7]: 0.12 nM

B1: ^125 I-[Sar^1,Ile^8]-Ang II (peptide)
peptide: GRVYIHPI
modifications: Sar at position 1, Ile at position 8, 125I label, as printed ^125 I-[Sar^1,Ile^8]-Ang II
binding result (mouse AT1b receptor [8]): binds | binding result [9]: binds
